Experimental data: PMC2764089

Target: Spc105p-PrA (S. cerevisiae) (UniProt P53148)
Assay: SEC + other: glycerol-gradient velocity ultracentrifugation; whole cell extracts of wild-type strains expressing Spc105p-PrA or Kre28p-PrA (each fusion in its own strain); 10-40% glycerol gradients and HiPrep 16/60 Sephacryl S-500 HR column; fractions found by western blotting with anti-PrA

Chain of UniProt P53148 (P53148 whole entry, the tested form may be a part): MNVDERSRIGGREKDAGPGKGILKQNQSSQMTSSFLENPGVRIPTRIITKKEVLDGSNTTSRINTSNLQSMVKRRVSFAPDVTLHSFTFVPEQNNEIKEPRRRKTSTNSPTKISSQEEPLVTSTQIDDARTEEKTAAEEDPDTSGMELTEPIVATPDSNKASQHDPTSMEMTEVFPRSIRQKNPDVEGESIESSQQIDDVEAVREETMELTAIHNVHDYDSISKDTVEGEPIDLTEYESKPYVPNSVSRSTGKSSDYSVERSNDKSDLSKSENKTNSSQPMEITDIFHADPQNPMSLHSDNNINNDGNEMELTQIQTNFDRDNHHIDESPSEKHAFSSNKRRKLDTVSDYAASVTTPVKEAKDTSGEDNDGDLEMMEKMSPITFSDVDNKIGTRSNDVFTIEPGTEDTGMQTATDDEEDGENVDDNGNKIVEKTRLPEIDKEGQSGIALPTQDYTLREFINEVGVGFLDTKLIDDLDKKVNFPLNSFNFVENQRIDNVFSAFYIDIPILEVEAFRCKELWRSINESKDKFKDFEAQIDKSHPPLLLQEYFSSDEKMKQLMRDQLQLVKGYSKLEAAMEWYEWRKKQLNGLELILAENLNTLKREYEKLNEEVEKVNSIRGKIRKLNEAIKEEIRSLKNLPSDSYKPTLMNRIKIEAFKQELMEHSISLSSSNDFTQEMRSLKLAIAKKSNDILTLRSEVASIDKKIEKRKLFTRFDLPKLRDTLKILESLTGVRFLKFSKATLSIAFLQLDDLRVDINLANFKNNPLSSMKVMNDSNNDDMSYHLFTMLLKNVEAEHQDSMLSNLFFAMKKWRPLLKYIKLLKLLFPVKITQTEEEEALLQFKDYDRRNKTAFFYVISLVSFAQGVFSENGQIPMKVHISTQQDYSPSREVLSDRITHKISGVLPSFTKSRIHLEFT

stoichiometry N (Kre28p per Spc105p): 2
Substance: Kre28p-PrA (from UniProt Q04431 1-385) (natural protein)
